Laboratory results reported in publication doi:10.1101/2024.03.11.584335.
Positions count from the first letter of the chain named. Read-outs that look alike come from different tables or passages of the source.

Columns and labels:
[1] = molecular target: RPAcoreΔP,W (minimal trimerization core, domains C, D, E) (human, UniProt P27694;P15927;P35244 438-616;35-174;1-121); assay: BLI
RPAcoreΔP [2] = molecular target: T1, RPAcoreΔP (human, UniProt P27694;P15927;P35244 438-616;35-270;1-121); assay: BLI
RPAcoreΔP [3] = molecular target: T1, RPAcoreΔP; assay: BLI; remark: listed apart in the source
[4] = molecular target: RPAcore;PolαCD (catalytic domain of DNA polymerase alpha) (human;human, UniProt P27694;P15927;P35244;P09884 438-616;1-270;1-121;335-1257, |); assay: cryo-EM
RPAcore;PolαCD (catalytic domain of DNA polymerase alpha), sequence (P27694 438-616, chain 1 of 4): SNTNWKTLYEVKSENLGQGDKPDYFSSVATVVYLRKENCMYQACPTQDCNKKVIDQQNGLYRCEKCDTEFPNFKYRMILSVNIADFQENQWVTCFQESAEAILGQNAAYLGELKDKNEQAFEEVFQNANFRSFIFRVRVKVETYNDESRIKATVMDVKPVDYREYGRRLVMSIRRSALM
RPAcore;PolαCD (catalytic domain of DNA polymerase alpha), sequence (P15927 whole entry, chain 2 of 4, the tested form may be a part): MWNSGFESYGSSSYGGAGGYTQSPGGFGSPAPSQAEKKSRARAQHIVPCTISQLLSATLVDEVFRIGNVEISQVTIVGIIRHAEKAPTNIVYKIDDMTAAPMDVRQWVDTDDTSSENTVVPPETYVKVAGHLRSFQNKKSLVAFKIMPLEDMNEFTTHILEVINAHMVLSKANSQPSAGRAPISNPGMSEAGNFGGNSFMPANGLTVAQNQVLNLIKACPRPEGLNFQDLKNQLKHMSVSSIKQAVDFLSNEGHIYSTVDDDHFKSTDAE
RPAcore;PolαCD (catalytic domain of DNA polymerase alpha), sequence (P35244 whole entry, chain 3 of 4, the tested form may be a part): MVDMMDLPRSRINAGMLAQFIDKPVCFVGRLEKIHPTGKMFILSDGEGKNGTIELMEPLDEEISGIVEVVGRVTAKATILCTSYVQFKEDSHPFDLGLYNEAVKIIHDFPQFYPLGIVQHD
RPAcore;PolαCD (catalytic domain of DNA polymerase alpha), sequence (P09884 335-1257, chain 4 of 4): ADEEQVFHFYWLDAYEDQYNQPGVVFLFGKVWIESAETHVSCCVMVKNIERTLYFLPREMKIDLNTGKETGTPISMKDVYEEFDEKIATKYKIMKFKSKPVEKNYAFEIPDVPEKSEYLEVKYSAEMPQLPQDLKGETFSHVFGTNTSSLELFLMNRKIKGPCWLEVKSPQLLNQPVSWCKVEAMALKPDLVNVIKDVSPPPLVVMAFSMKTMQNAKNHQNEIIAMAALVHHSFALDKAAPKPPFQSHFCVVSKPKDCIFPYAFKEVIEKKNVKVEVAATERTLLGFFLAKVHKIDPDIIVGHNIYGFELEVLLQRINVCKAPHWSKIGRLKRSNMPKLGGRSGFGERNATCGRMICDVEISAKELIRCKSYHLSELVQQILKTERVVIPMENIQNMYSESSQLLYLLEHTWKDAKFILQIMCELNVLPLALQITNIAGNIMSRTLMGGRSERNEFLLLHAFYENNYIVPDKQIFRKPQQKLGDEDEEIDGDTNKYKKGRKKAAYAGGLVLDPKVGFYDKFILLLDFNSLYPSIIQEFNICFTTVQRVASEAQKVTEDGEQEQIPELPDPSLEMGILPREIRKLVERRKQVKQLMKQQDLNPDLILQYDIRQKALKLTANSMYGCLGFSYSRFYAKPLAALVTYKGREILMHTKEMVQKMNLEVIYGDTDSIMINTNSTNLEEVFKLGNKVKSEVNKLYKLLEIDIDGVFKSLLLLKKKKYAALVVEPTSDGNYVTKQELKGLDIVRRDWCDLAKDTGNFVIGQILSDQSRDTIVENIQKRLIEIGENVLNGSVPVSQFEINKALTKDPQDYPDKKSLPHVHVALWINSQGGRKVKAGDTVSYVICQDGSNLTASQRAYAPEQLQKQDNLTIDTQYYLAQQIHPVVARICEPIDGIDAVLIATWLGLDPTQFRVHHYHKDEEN

T1 sequence (P27694 438-616, stated change not applied, chain 1 of 3): as the sequence (P27694 438-616, chain 1 of 4) above
T1 sequence (P15927 35-270, stated change not applied, chain 2 of 3): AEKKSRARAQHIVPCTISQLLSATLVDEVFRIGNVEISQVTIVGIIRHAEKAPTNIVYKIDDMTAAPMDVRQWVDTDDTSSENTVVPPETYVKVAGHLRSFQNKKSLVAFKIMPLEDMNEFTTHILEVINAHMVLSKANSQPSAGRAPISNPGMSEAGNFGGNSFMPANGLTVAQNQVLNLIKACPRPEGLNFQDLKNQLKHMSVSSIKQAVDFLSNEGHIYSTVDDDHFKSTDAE
T1 sequence (P35244 whole entry, stated change not applied, chain 3 of 3): as the sequence (P35244 whole entry, chain 3 of 4, the tested form may be a part) above
RPAcoreΔP,W (minimal trimerization core, domains C, D, E), sequence (P27694 438-616, stated change not applied, chain 1 of 3): as the sequence (P27694 438-616, chain 1 of 4) above
RPAcoreΔP,W (minimal trimerization core, domains C, D, E), sequence (P15927 35-174, stated change not applied, chain 2 of 3): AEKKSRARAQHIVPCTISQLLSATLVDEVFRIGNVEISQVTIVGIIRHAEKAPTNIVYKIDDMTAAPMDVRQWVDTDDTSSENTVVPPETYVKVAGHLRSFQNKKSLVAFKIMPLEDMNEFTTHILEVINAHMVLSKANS
RPAcoreΔP,W (minimal trimerization core, domains C, D, E), sequence (P35244 whole entry, stated change not applied, chain 3 of 3): as the sequence (P35244 whole entry, chain 3 of 4, the tested form may be a part) above

B1: T8:P3 template:primer (mixed)
DNA: AATCTAGTAACATAGTATACATAAGCGCTCCAGGC
RNA: GCCUGGAGCGC
modifications: P3 is a chimeric RNA-DNA primer (RNA/DNA boundary not in the material) with 3'-dideoxycytidine
For B1, the Kd [1] was 90.2 ± 4.5 nM, the Kd (RPAcoreΔP [2]) was 124 ± 15 nM and the Kd (RPAcoreΔP [3]) was 50.3 ± 6.6 nM.

B2: T9:P4 template:primer (mixed)
DNA: B1 DNA with A24G
RNA: GCCUGGAGCGC
modifications: P4 primer contains U (RNA-DNA chimera?) and 3'-dideoxycytidine
B2: binds [4].
